From publication PMC10931652, “Recombinant Rod Domain of Vimentin Reduces SARS-CoV-2 Viral Replication by Blocking Spike Protein–ACE2 Interactions” (International Journal of Molecular Sciences, 2024)

Target: T1, recombinant spike S1S2 extracellular domain of SARS-CoV-2 (S1S2ECD-His) (SARS-CoV-2, UniProt P0DTC2 14-1213, IRDye 800CW NHS ester label (as the probe of the peptide array only))
T1 construct: also called SARS-CoV-2 spike protein; S1S2 protein
Experiment: BLI; S1S2ECD-His amine-coupled on AR2G sensors (10 µg/mL in 10 mM sodium acetate pH 4); rhRod in solution, 8 concentrations a run; Octet Red384; KD by non-linear regression of the steady-state response
Settings: both partners purified

B1: recombinant rod domain of vimentin (rhRod) (domain or fragment)
chain: not shown
modifications: IRDye 800CW NHS ester label (as the probe of the peptide array only)
notes: also called rhRod-1 to rhRod-7 (lots)
Binder B1 has a Kd of 163 nM.
